Measured values published in the Human Domainome abundance scans (Beltran et al. 2025).
± gives the uncertainty stated by the source.

B1: Friend leukemia integration 1 transcription factor, residues 116 to 197; numbered along this chain, Q01543 (parent)
chain: NMTTNERRVIVPADPTLWTQEHVRQWLEWAIKEYSLMEIDTSFFQNMDGKELCKMNKEDFLRATTLYNTEVLLSHLSYLRES

Variants of: B1
Assay: abundance fitness (aPCA) (normalised: wild type 0, dead -1); higher = more abundant; growth selection in yeast, the domain comes from the species named
Details: Homo sapiens

**Q.** For NMTTNERRVIVPADPTLWTQEHVRQWLEWAIKEYSLMEIDTRFFQNMDGKELCKMNKEDFLRATTLYNTEVLLSHLSYLRES, which abundance fitness is on record?
**A.** -0.115 ± 0.068

**Q.** For NMTTNERRVIVPADPTLWTQEHVRQWLEWAIKEYSLMEIDTYFFQNMDGKELCKMNKEDFLRATTLYNTEVLLSHLSYLRES, which abundance fitness is on record?
**A.** -0.264 ± 0.14

**Q.** Which abundance fitness does the source give for NMTTNERRVIVPADPTLWTQEHVRQWLEWAIKEYSLMEIDTVFFQNMDGKELCKMNKEDFLRATTLYNTEVLLSHLSYLRES here?
**A.** -0.07 ± 0.08

**Q.** With NMTTNERRVIVPADPTLWTQEHVRQWLEWAIKEYSLMEIDTWFFQNMDGKELCKMNKEDFLRATTLYNTEVLLSHLSYLRES as the variant, how does the abundance fitness read?
**A.** -0.294 ± 0.059

**Q.** With NMTTNERRVIVPADPTLWTQEHVRQWLEWAIKEYSLMEIDTTFFQNMDGKELCKMNKEDFLRATTLYNTEVLLSHLSYLRES as the variant, how does the abundance fitness read?
**A.** 0.023 ± 0.083

**Q.** With NMTTNERRVIVPADPTLWTQEHVRQWLEWAIKEYSLMEIDTSFFQRMDGKELCKMNKEDFLRATTLYNTEVLLSHLSYLRES as the variant, how does the abundance fitness read?
**A.** 0.066 ± 0.064

**Q.** With NMTTNERRVIVPADPTLWTQEHVRQWLEWAIKEYSLMEIDTSFFQCMDGKELCKMNKEDFLRATTLYNTEVLLSHLSYLRES as the variant, how does the abundance fitness read?
**A.** -0.153 ± 0.11

**Q.** For NMTTNERRVIVPADPTLWTQEHVRQWLEWAIKEYSLMEIDTSFFQFMDGKELCKMNKEDFLRATTLYNTEVLLSHLSYLRES, which abundance fitness is on record?
**A.** 0.045 ± 0.14

**Q.** Which abundance fitness does the source give for NMTTNERRVIVPADPTLWTQEHVRQWLEWAIKEYSLMEIDTSFFQPMDGKELCKMNKEDFLRATTLYNTEVLLSHLSYLRES here?
**A.** -0.205 ± 0.099

**Q.** For NMTTNERRVIVPADPTLWTQEHVRQWLEWAIKEYSLMEIDTSFFQKMDGKELCKMNKEDFLRATTLYNTEVLLSHLSYLRES, which abundance fitness is on record?
**A.** 0.033 ± 0.14

**Q.** With NMTTNERRVIVPADPTLWTQEHVRQWLEWAIKEYSLMEIDTSFFQMMDGKELCKMNKEDFLRATTLYNTEVLLSHLSYLRES as the variant, how does the abundance fitness read?
**A.** -0.135 ± 0.073

**Q.** For NMTTNERRVIVPADPTLWTQEHVRQWLEWAIKEYSLMEIDTSFFQLMDGKELCKMNKEDFLRATTLYNTEVLLSHLSYLRES, which abundance fitness is on record?
**A.** -0.175 ± 0.085

**Q.** With NMTTNERRVIVPADPTLWTQEHVRQWLEWAIKEYSLMEIDTSFFQGMDGKELCKMNKEDFLRATTLYNTEVLLSHLSYLRES as the variant, how does the abundance fitness read?
**A.** -0.089 ± 0.24

**Q.** For NMTTNERRVIVPADPTLWTQEHVRQWLEWAIKEYSLMEIDTSFFQIMDGKELCKMNKEDFLRATTLYNTEVLLSHLSYLRES, which abundance fitness is on record?
**A.** -0.397 ± 0.13

**Q.** For NMTTNERRVIVPADPTLWTQEHVRQWLEWAIKEYSLMEIDTSFFQAMDGKELCKMNKEDFLRATTLYNTEVLLSHLSYLRES, which abundance fitness is on record?
**A.** -0.077 ± 0.33

**Q.** Which abundance fitness does the source give for NMTTNERRVIVPADPTLWTQEHVRQWLEWAIKEYSLMEIDTSFFQHMDGKELCKMNKEDFLRATTLYNTEVLLSHLSYLRES here?
**A.** 0.297 ± 0.25

**Q.** Which abundance fitness does the source give for NMTTNERRVIVPADPTLWTQEHVRQWLEWAIKEYSLMEIDTSFFFNMDGKELCKMNKEDFLRATTLYNTEVLLSHLSYLRES here?
**A.** -0.102 ± 0.16

**Q.** For NMTTNERRVIVPADPTLWTQEHVRQWLEWAIKEYSLMEIDTSFFVNMDGKELCKMNKEDFLRATTLYNTEVLLSHLSYLRES, which abundance fitness is on record?
**A.** 0.062 ± 0.057

**Q.** Which abundance fitness does the source give for NMTTNERRVIVPADPTLWTQEHVRQWLEWAIKEYSLMEIDTSFFYNMDGKELCKMNKEDFLRATTLYNTEVLLSHLSYLRES here?
**A.** 0 ± 0.15

**Q.** With NMTTNERRVIVPADPTLWTQEHVRQWLEWAIKEYSLMEIDTSFFGNMDGKELCKMNKEDFLRATTLYNTEVLLSHLSYLRES as the variant, how does the abundance fitness read?
**A.** -0.04 ± 0.07

**Q.** With NMTTNERRVIVPADPTLWTQEHVRQWLEWAIKEYSLMEIDTSFFRNMDGKELCKMNKEDFLRATTLYNTEVLLSHLSYLRES as the variant, how does the abundance fitness read?
**A.** 0.091 ± 0.049

**Q.** For NMTTNERRVIVPADPTLWTQEHVRQWLEWAIKEYSLMEIDTSFFDNMDGKELCKMNKEDFLRATTLYNTEVLLSHLSYLRES, which abundance fitness is on record?
**A.** -0.295 ± 0.18

**Q.** With NMTTNERRVIVPADPTLWTQEHVRQWLEWAIKEYSLMEIDTSFFSNMDGKELCKMNKEDFLRATTLYNTEVLLSHLSYLRES as the variant, how does the abundance fitness read?
**A.** -0.003 ± 0.084

**Q.** With NMTTNERRVIVPADPTLWTQEHVRQWLEWAIKEYSLMEIDTSFFPNMDGKELCKMNKEDFLRATTLYNTEVLLSHLSYLRES as the variant, how does the abundance fitness read?
**A.** -0.381 ± 0.1

**Q.** With NMTTNERRVIVPADPTLWTQEHVRQWLEWAIKEYSLMEIDTSFFANMDGKELCKMNKEDFLRATTLYNTEVLLSHLSYLRES as the variant, how does the abundance fitness read?
**A.** 0.028 ± 0.067

**Q.** For NMTTNERRVIVPADPTLWTQEHVRQWLEWAIKEYSLMEIDTSFFKNMDGKELCKMNKEDFLRATTLYNTEVLLSHLSYLRES, which abundance fitness is on record?
**A.** -0.048 ± 0.096

**Q.** With NMTTNERRVIVPADPTLWTQEHVRQWLEWAIKEYSLMEIDTSFFTNMDGKELCKMNKEDFLRATTLYNTEVLLSHLSYLRES as the variant, how does the abundance fitness read?
**A.** -0.068 ± 0.08

**Q.** With NMTTNERRVIVPADPTLWTQEHVRQWLEWAIKEYSLMEIDTSFFMNMDGKELCKMNKEDFLRATTLYNTEVLLSHLSYLRES as the variant, how does the abundance fitness read?
**A.** 0.026 ± 0.074

**Q.** With NMTTNERRVIVPADPTLWTQEHVRQWLEWAIKEYSLMEIDTSFFENMDGKELCKMNKEDFLRATTLYNTEVLLSHLSYLRES as the variant, how does the abundance fitness read?
**A.** 0.045 ± 0.081

**Q.** Which abundance fitness does the source give for NMTTNERRVIVPADPTLWTQEHVRQWLEWAIKEYSLMEIDTSFFCNMDGKELCKMNKEDFLRATTLYNTEVLLSHLSYLRES here?
**A.** -0.081 ± 0.12

**Q.** For NMTTNERRVIVPADPTLWTQEHVRQWLEWAIKEYSLMEIDTSFFWNMDGKELCKMNKEDFLRATTLYNTEVLLSHLSYLRES, which abundance fitness is on record?
**A.** 0.056 ± 0.065

**Q.** With NMTTNERRVIVPADPTLWTQEHVRQWLEWAIKEYSLMEIDTSFFHNMDGKELCKMNKEDFLRATTLYNTEVLLSHLSYLRES as the variant, how does the abundance fitness read?
**A.** -0.072 ± 0.15

**Q.** With NMTTNERRVIVPADPTLWTQEHVRQWLEWAIKEYSLMEIDTSFFLNMDGKELCKMNKEDFLRATTLYNTEVLLSHLSYLRES as the variant, how does the abundance fitness read?
**A.** -0.009 ± 0.049
